Experimental findings from publication PMC5910193 are described below.

For experiment [1], the target named is PEbody with N-terminal 6x His tag (human) (UniProt P02751). As to the kind of experiment: BLI.
The target in experiment [2] is Single4 monobody displayed on the yeast surface (human) (UniProt P02751). The experiment can be described thus: flow cytometry on cells.

R-Phycoerythrin (complex) returned a Kd in experiment [1] of 5.7 nM. In experiment [2], this substance showed a fold R-PE binding capability against G9 of 500 fold.

As usually defined, the Kd is a measure of binding affinity in units of concentration. The low end stands for a tighter complex, the high end for a looser complex.
